In experiment [1] the target is T1, DWnt-5(455-1004) (D. melanogaster, UniProt P28466 455-1004, glycosylated at N484/485, N724 and N952; S868 unmodified (not lipid modified)).
T1 sequence (looked up): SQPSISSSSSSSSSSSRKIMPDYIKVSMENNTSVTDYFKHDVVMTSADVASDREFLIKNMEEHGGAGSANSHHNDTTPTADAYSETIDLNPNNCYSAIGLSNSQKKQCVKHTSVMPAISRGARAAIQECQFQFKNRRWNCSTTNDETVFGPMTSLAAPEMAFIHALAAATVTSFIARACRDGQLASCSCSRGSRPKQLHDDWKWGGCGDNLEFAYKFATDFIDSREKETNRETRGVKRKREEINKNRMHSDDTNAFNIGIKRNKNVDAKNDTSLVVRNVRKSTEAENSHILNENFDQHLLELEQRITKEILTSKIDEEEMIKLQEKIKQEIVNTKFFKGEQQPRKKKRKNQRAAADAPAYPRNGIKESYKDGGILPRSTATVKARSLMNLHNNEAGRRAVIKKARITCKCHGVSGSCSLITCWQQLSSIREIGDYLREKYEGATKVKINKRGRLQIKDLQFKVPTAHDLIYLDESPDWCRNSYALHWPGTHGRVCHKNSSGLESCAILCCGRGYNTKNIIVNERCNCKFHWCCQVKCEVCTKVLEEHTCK
Description: SPR. (In general: Surface plasmon resonance follows binding to a sensor surface in real time, without labels.)

For experiment [2], the target named is T1, DWnt-5(455-1004). Description: pull-down.

The record followed here is publication PMC8650758 (Cell reports, 2021).

In general, Kd refers to the equilibrium constant for the complex coming apart. Low readings indicate tighter binding, high ones weaker binding.

Changes are numbered by the printed parent chain. Numbers in names are those of the source.

B1: sDrl-2 (Drl-2 ECR) (domain or fragment, D. melanogaster)
chain: GYLNIFISHHEVMKLMGLEADLFYVHEGAINTYAMHFTVPVPADVHELEFSWQSLIAYPLPYAISIEYNNDQEALGTPTLSIPHKGLVPQEIESFLVYLPCTGNASLQMPVNVNMVVRAPPRFNDTRLHFKRNKICAKGISPEPNQSPAPAHAPSQGPARPLESRGPFEGKPIPNPLLGLDSTRTG
As for B1, in experiment [1], binding was put at a Kd of 230 nM.

B2: sDnt (Dnt ECR) (domain or fragment, D. melanogaster)
chain: SEVAAHLNVFLNPVEVMRLLGVSAEVYYVREGHINNYALNFIVPVPANVKDISFTWQSLAGRGLPYSINVVSSDQEVLPRPAINVSHSGEIPTTIQTWSIALKCSGLKAAEVDVTVSLEVVLNRSLNNVTHLVFRRKKICLMNDSAEDLSEDVDDPQLLETVMLPPTGRPLESRGPFEGKPIPNPLLGLDSTRTG
For the molecule B2, the “fold weaker binding than the Drl and Drl-2 ECRs” value in experiment [1] is roughly 10 fold.

B3: sDrl183 (Drl WIF domain) (domain or fragment, D. melanogaster, UniProt Q27324 21-183, looked up)
chain: HLNIFLNLHEVLRLIGVSAELYYVREGAINDYALNFAVPVPANISDVTFTWQSLVDHPLPYSINIATSDTEVLPRPILNISRIGDVPVEPQTWGIALKCSGTRNAEVTVTINVEVILDRATNNNTNLIFKRKKICLREEQDSAHEEYDDDDLDLLQTARKGHG
Consider B3, for which the binding result in experiment [2] is reported as “binds”.

B4: sDrl242 E40K (domain or fragment, D. melanogaster, UniProt Q27324 21-242, looked up)
chain: HLNIFLNLHEVLRLIGVSAKLYYVREGAINDYALNFAVPVPANISDVTFTWQSLVDHPLPYSINIATSDTEVLPRPILNISRIGDVPVEPQTWGIALKCSGTRNAEVTVTINVEVILDRATNNNTNLIFKRKKICLREEQDSAHEEYDDDDLDLLQTARKGHGGDIHYVDRNDEHVVANGHQAPEKQRPVVTESPVGRGNSGGSKRDFDPMLRENLVPPASG
Take B4: the “fold reduction of affinity against wild-type sDrl242” value in experiment [1] was roughly 10 fold.

B5: sDrl242 (Drl ECR) (domain or fragment, D. melanogaster, UniProt Q27324 21-242, looked up)
chain: B4 chain with K20E
Turning to B5, the Kd in experiment [1] was 720 nM.

B6: sDrl242 E126K (domain or fragment, D. melanogaster, UniProt Q27324 21-242, looked up)
chain: B4 chain with K20E, E106K
On to B6, for which the binding result in experiment [1] is “binds”.

B7: sDrl242 I154E (domain or fragment, D. melanogaster, UniProt Q27324 21-242, looked up)
chain: B4 chain with K20E, I134E
Turning to B7, the binding result in experiment [1] was “binds”.
